Reference: paper PMC11665464, “The molecular chaperone ALYREF promotes R-loop resolution and maintains genome stability”

Biological target: ALYREF-ΔRRM (human, UniProt Q86V81 1-257, del108-179)
Assay: EMSA; 35 mM Tris-HCl pH 7.5, 1 mM DTT, 100 ug/ml BSA, 1 mM MgCl2, 100 mM KCl, 10 min at 30 C; 5 nM nucleic acid; gel at 4 C
Settings: protein: recombinant; tags: His6; label: 32P; three-strand 5' RNA flap; RNA and DNA2 share the complement on DNA1

B1: 5' RNA-DNA flap (R-Flap, migratable R-loop mimic) (mixed)
DNA 1: ACGCTGCCGAATTCTACCAGTGCCTTGCTAGGACATCTTTGCCCACCTGGTGGTGGGACC
DNA 2: GGTCCCACCACCAGGTGGGCAAAGATGTCCCAGCAAGGCACTGGTAGAATTCGGCAGCGT
RNA: GGUCCCACCACCAGGUGGGCAAAGAUGUCC
Q: Does B1 bind?
A: Result: binds
